The experiment addresses T1, human CXADR Fc chimera protein (CAR) (human, UniProt P78310).
T1 construct: also called coxsackievirus and adenovirus receptor; source: bought: R&D Systems
T1 sequence: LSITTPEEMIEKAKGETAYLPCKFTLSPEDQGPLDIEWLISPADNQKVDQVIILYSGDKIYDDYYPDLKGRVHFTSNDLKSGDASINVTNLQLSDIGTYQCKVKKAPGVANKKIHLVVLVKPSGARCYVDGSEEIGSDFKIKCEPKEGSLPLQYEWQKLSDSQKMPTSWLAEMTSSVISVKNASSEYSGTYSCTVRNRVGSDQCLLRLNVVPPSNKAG
Put plainly: SPR; BIAcore 3000; DSG2-Fc, CAR-Fc and CD46-His (approximately 500 RU) coupled to a CM5 chip; knob protein injected (178 uM, 5x 1:3 dilutions; single-cycle kinetics from 200 uM); 30 uL/min, PBS, 25 °C; equilibrium KD assuming 1:1 Langmuir binding. The note with it: both partners purified. Background: In SPR one partner is held on a chip, and binding of the other changes the refractive index at the surface.

Kd data for 1 molecule are collected here from article PMC8971729 (Molecular Therapy Oncolytics, 2022).

B1: HAdV-C5 fiber knob protein (domain or fragment)
chain: KNNDKLTLWTTPAPSPNCRLNAEKDAKLTLVLTKCGSQILATVSVLAVKGSLAPISGTVQSAHLIIRFDENGVLLNNSFLDPEYWNFRNGDLTEGTAYTNAVGFMPNLSAYPKSHGKTAKSNIVSQVYLNGDKTKPVTLTITLNGTQETGDTTPSAYSMSFSWDWSGHNYINEIFATSSYTFSYIAQE
notes: source: supplemental methods
For the molecule B1, the Kd (usually the constant that tells how readily two partners part at equilibrium) stood at 0.76 nM.
